In experiment [1] the target is T1, 癌胚抗原 (CEA) 抗原 (UniProt P06731 35-685, limits assumed).
T1 construct: The CEA antigen used for coating is not described further
T1 sequence (looked up): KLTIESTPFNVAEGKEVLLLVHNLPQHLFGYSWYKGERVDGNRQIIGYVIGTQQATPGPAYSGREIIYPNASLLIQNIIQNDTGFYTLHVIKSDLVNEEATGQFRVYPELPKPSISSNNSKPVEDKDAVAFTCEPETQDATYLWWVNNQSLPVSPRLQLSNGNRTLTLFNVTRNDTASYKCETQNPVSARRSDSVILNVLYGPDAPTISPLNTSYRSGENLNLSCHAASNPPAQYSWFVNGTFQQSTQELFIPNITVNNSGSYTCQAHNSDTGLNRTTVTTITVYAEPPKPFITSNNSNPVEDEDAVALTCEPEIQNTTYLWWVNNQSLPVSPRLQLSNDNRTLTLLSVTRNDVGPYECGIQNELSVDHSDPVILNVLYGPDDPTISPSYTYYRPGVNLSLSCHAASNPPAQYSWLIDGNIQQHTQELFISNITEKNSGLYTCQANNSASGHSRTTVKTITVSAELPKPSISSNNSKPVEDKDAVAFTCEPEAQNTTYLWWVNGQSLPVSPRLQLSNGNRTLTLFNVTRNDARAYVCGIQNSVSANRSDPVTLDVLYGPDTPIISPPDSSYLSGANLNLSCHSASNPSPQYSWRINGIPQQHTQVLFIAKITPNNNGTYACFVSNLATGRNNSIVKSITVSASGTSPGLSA
The experiment can be described thus: ELISA, CEA antigen coated, detection with anti-His-HRP.

For experiment [2], the target named is T1, 癌胚抗原 (CEA) 抗原. The experiment can be described thus: ELISA, CEA antigen coated; converted from 183.6 ng/ml with the relative molecular mass 27486 g/mol. On the technique in general: An ELISA detects its analyte on a solid surface through an enzyme-linked reagent.

These results are taken from patent publication CN112724255A (CHENGDU JINKUN BIOTECHNOLOGY CO LTD, dated 2021).

B1: 96ScFv 单链抗体 (靶向癌胚抗原的小分子抗体) (scFv)
scFv: MGQVRLRESGPSLVKPSQTLSLTCTVSGFSLTKYGVSWVRQAPGKALEWLGGVSSGALTAYNTALQSRLSVTRDTSKSQFSLSLSSVTTEDTAIYYCAKSVNGDSVPYGLDYWSPGLLITVSSGGGGSGGGGSGGGGSQAVLTQPSSVSGSLGQRVSITCSGSSSNIGGNAYVGWYQQVPGSAPRLLISATTDRASGIPDRFFGSRSGNTATLTISSLQAEDEADYYCASYQSTYSGVFGSGTMLAVLGTVAAPSVFHHHHHHHLGGC
notes: Expressed in E. coli from pET22-96ScFv and purified on Ni resin; The vector adds a C-terminal His tag and a cysteine; also called CEA小分子抗体; 本发明抗体片段
The EC50 is the concentration at which the effect is half-maximal. Low readings indicate greater potency, high ones weaker potency. Take B1: the values for the EC50 with 癌胚抗原 (CEA) 抗原 [1] and in the experiment with 癌胚抗原 (CEA) 抗原 [2] were 0.184 µg/mL and 6.7 nM, respectively.
